The target in series [1] is T1, BAFF-R (B-cell activating factor receptor, TNFRSF13C) (Homo sapiens, UniProt Q96RJ3 Q96RJ3:1-76).
T1 sequence: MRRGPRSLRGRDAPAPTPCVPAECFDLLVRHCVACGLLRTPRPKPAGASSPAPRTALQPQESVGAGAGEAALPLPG
In words: EMSA; about; UU linker. The note with it: tags: ProSpect (Israel), human recombinant; label: 32P. On the procedure: (§1) The binding activities of the RNA pools were further confirmed by gel shift assays. Briefly, the BAFF-R protein was serially diluted to the desired concentrations (0˜2560 nM). A constant amount of P³² end-labeled RNA (2 nM) was used. The binding reaction was performed as described above. After incubation, 25 μL of binding reaction was loaded into a 5% non-denaturing polyacrylamide gel. Following electrophoresis the gel was exposed to a Phosphor image screen and the radioactivity was quantified using a Typhoon scanner. The dissociation constants were calculated using non-linear curve regression with a Graph Pad Prism. […] The dissociation constants (Kd) for selected aptamers (R-1, R-2 and R-14) with the target protein were calculated from a native gel mobility shift assay (FIG. 16A).
(§2) Binding affinities were also assessed by flow cytometry (FIG. 28). […] To determine if the bound chimeras were internalized in the BAFF-R expressing cells, out Z-axis confocal microscopy was performed with Jeko-1 cells and CEM control cells incubated with Cy3-labeled transcripts as described above. […] To visualize the nucleus, the cells were stained with the nuclear dye Hoechst 33342 after incubation with Cy3-RNA.
On the technique in general: A gel shift assay detects complexes by their altered migration in electrophoresis.

Series [2] addresses T1, BAFF-R (B-cell activating factor …). Nature of the series: EMSA; 8U linker. The note with it: tags: ProSpect (Israel), human recombinant; label: 32P. On the procedure: as §1
(§3) The binding affinities of the chimeras for BAFF-R protein were assessed by gel shift assay (FIG. 40C and FIG. 49A). […] To determine whether the bound chimera is internalized by BAFF-R expressing cells, real-time Z-axis confocal microscopy was performed (FIG. 41A-C and FIG. 49B). The Cy3-labeled chimeras were successfully internalized into BAFF-R expressing cells (Jeko-1 and Z138) after 5 h post treatment.

The target is the same in series [3]. Nature of the series: EMSA; high-salt binding buffer (10 mM HEPES pH 7.4, 150 mM NaCl, 1 mM CaCl2, 1 mM MgCl2, tRNA); about. The note with it: tags: ProSpect (Israel), human recombinant; label: 5'-32P or Cy3. On the procedure: (§4) Filter binding assays were used to detect the binding affinity of the individual aptamers. The RNA pool was treated with Calf Intestinal Phoshatase (CIP) to remove the initiating 5′-triphosphate and labeled with γ-³²P-ATP by T4 polynucleotide kinase and the end-labeled RNA pool (10 nM) was incubated with BAFF-R protein (100 nM) and a 10-fold molar excess of nonspecific competitor tRNA (100 nM) in the high-salt RNA binding buffer for 30 min. A 50 μL of binding reaction was separated by a pre-wet nitrocellulose filter. After the filter was washed with 2 mL binding buffer, the radioactivity retained on the filter was counted by a multi-purpose scintillation counter (Beckman Coulter).
as §1, with “After incubation, 25 μL of binding reaction was loaded into a 5% non-denaturing polyacrylamide gel.” left out

The target is the same in series [4]. In words: EMSA; parental R-1 in STAT3 chimera comparison. The note with it: tags: ProSpect (Israel), human recombinant; label: 5'-32P or Cy3. As for the experimental part: as §1, §3
Series [5] shares this target. Nature of the series: EMSA; about; R-22 used as low-affinity negative control. The note with it: tags: ProSpect (Israel), human recombinant; label: 32P. As for the experimental part:
as §1, §2

Series [6] has the same target. Nature of the series: EMSA; high-salt binding buffer; about. The note with it: tags: ProSpect (Israel), human recombinant; label: 5'-32P or Cy3. On the procedure:
as §4
as §1, with “After incubation, 25 μL of binding reaction was loaded into a 5% non-denaturing polyacrylamide gel.” left out

Where a chain is given by its changes, count along the chain named.

A word on the Kd: it is a measure of binding affinity in units of concentration.

B1: R-1 D-2 chimera (CCND1 siRNA design 2) (mixed)
RNA 1: GGGAGGACGAUGCGGGAGGCUCAACAAUGAUAGAGCCCGCAAUGUUGAUAGUUGUGCCCAGUCUGCAGACGACUCGCCCGAUUUGUGCCACAGAUGUGAAGUUCAUUUCC
RNA 2: AAAUGAACUUCACAUCUGUGGCACA
modifications: 2'-F pyrimidines in transcribed aptamer-sense strand
Consider B1, for which the Kd in series [1] was found to be 126 nM.

B2: R-1-STAT3 27-mer SWAP chimera (mixed)
RNA 1: GGGAGGACGAUGCGGGAGGCUCAACAAUGAUAGAGCCCGCAAUGUUGAUAGUUGUGCCCAGUCUGCAGACGACUCGCCCGAUUUUUUUUUCAGUCGUAUCUUUCUGCAGCUUCCGU
RNA 2: GGAAGCUGCAGAAAGAUACGACUGA
modifications: 2'-F pyrimidines in transcribed aptamer strand
As for B2, the Kd in series [2] came to 56 nM.

B3: R-1 aptamer (ssRNA)
RNA: GGGAGGACGAUGCGGGAGGCUCAACAAUGAUAGAGCCCGCAAUGUUGAUAGUUGUGCCCAGUCUGCAGACGACUCGCCCGA
modifications: 2'-F pyrimidines (2'-F-C, 2'-F-U)
Turning to B3, the figures for the dissociation constant Kd in series [3] and in series [4] were 47 nM and 54 nM, respectively.

B4: R-1 D-1-Mutated chimera (mixed)
RNA 1: GGGAGGACGAUGCGGGAGGCUCAACAAUGAUAGAGCCCGCAAUGUUGAUAGUUGUGCCCAGUCUGCAGACGACUCGCCCGAUUCUCCAGAUUCCAAGCACAUUGUGAA
RNA 2: UUCACAAUGUGCUUGGAAUCUGGAGCA
modifications: 2'-F pyrimidines in transcribed aptamer-sense strand
Take B4: the Kd in series [1] was 51 nM.

B5: R-1 D-1 chimera (CCND1 siRNA design 1) (mixed)
RNA 1: B4 RNA 1 with U85C, C86A, U92G, C93U, C94G, C98U, A99U, G104U, U105C, G106C
RNA 2: UUGGAAAUGAACUUCACAUCUGUGGCA
modifications: 2'-F pyrimidines in transcribed aptamer-sense strand
As to B5, the dissociation constant Kd in series [1] turned out to be 66 nM.

B6: R-14 D-1 chimera (mixed)
RNA 1: GGGAGGACGAUGCGGAUAACUAUUGUGCUAGAGGGCUUAUUUAUGUGAGCCGGUUGAUAGUUGCGCAGACGACUCGCCCGAUUCCACAGAUGUGAAGUUCAUUUCCAA
RNA 2: UUGGAAAUGAACUUCACAUCUGUGGCA
modifications: 2'-F pyrimidines in transcribed aptamer-sense strand
As for B6, in series [1], the Kd turned out to be 80 nM.

B7: R-1-STAT3 27-mer OVH chimera (mixed)
RNA 1: GGGAGGACGAUGCGGGAGGCUCAACAAUGAUAGAGCCCGCAAUGUUGAUAGUUGUGCCCAGUCUGCAGACGACUCGCCCGAUUUUUUUUGAGAACGGAAGCUGCAGAAAGAUACGA
RNA 2: GUAUCUUUCUGCAGCUUCCGUUCUC
modifications: 2'-F pyrimidines in transcribed aptamer strand
For B7, the dissociation constant (Kd) in series [2] is 35 nM.

B8: R-14 D-2 chimera (mixed)
RNA 1: GGGAGGACGAUGCGGAUAACUAUUGUGCUAGAGGGCUUAUUUAUGUGAGCCGGUUGAUAGUUGCGCAGACGACUCGCCCGAUUUGUGCCACAGAUGUGAAGUUCAUUUCC
RNA 2: AAAUGAACUUCACAUCUGUGGCACA
modifications: 2'-F pyrimidines in transcribed aptamer-sense strand
As for B8, in series [1], the Kd amounted to 73 nM.

B9: R-22 D-1 chimera (mixed)
RNA 1: GGAGGACGAUGCGGAUCCUCCGAAGGUCGCGCCAACGUCACACAUUAAGCUUUUGUUCGUCUGCAGACGACUCGCCCGAUUCCACAGAUGUGAAGUUCAUUUCCAA
RNA 2: UUGGAAAUGAACUUCACAUCUGUGGCA
modifications: 2'-F pyrimidines in transcribed aptamer-sense strand
Regarding B9, the Kd in series [5] was determined as 191 nM.

B10: R-14 aptamer (ssRNA)
RNA: GGGAGGACGAUGCGGAUAACUAUUGUGCUAGAGGGCUUAUUUAUGUGAGCCGGUUGAUAGUUGCGCAGACGACUCGCCCGA
modifications: 2'-F pyrimidines (2'-F-C, 2'-F-U)
Regarding B10, the Kd in series [6] is 96 nM.

The record behind these values is US20160348113, “RNA APTAMERS AGAINST BAFF-R AS CELL-TYPE SPECIFIC DELIVERY AGENTS AND METHODS FOR THEIR USE” (CITY OF HOPE, published 2016).
